# Measurements published in publication PMC7642319, “Behavior control of membrane-less protein liquid condensates with metal ion-induced phase separation” (Nature Communications, 2020).
# Target: T1, second SH3 domain from Nck
# T1 construct: second SH3 domain of Nck; The methods say that 6His-tagged proteins were purified on Ni-IDA and that the tag could be removed with TEV protease; also called free SH3; SH3 domain proteins; source: E. coli BL21 (DE3), pET-21a, purified (Ni-IDA)
# Test: ITC; SH3 domain in the cell, chemically synthesized peptide as titrant in the syringe; PBS pH 7.4, 25 °C; one-site binding model
# Conditions: both partners purified
row,Binder,Kd [µM]
1,"MKKKKTAPTPPKRS [proline-rich motif (PRM) peptide, wild type]",379
2,"MKKTPPPVPPRTTSK [PRM(H) peptide, wild type]",12.8
3,MKKTPPAVPPRTTSK [P7A mutant PRM(H) peptide],19.4
4,MKKTPPPVAPRTTSK [P9A mutant PRM(H) peptide],102
5,MKKTPPAVAPRTTSK [P7A P9A double mutant PRM(H) peptide],131
6,ELELTAPTPPKRS [ELEL mutant PRM peptide (four Lys residues mutated to acidic ELEL)],121
7,MEETPPPVPPRTTSK [EE mutant PRM(H) peptide (two Lys residues mutated to acidic EE)],3.32
